# Laboratory results taken from PMC7400510, “Molecular basis of the lipid-induced MucA-MucB dissociation in Pseudomonas aeruginosa” (Communications Biology, 2020).
# T1: MucB (pET22b-MucB-6His) (P. aeruginosa, UniProt P38108 22-316)
# T1 chain: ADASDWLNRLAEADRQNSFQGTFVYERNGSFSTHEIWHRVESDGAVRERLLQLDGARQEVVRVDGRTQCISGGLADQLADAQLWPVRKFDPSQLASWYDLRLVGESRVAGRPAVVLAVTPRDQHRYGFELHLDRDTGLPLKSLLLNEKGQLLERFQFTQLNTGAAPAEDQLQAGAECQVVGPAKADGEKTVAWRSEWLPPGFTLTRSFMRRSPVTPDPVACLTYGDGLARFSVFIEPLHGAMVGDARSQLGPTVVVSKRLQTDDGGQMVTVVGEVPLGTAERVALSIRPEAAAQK
# T2: MucB (pET22b-MucB-6His) (P. aeruginosa, UniProt P38108 22-316)
# T2 construct: source: E. coli BL21 (DE3), purified (Ni–NTA, Superdex-75)
# T2 sequence: T1 chain
# B1: periplasmic region of MucA (MucA^peri: residues 106–194), with His-tag (domain or fragment)
# chain: YNQNDALPQMAQQGTTPQIALPQVKGPAVLAGYSEEQGAPQVITNSSSSDTRWHEQRLPIYLRQHVQQSAVSGTESALPYARAASLENR
# notes: also called periplasmic domain of MucA; source: E. coli BL21 (DE3), purified (Ni–NTA, Superdex-75); not shown: His6, C-terminal, kept
# Experiments:
# MucB (pET22b-MucB-6His) [1] = biological target: T1, MucB (pET22b-MucB-6His); assay: ITC
# MucB (pET22b-MucB-6His) [2] = biological target: T2, MucB (pET22b-MucB-6His); assay: ITC; MucB (20 µM) in the sample cell titrated with MucA^peri (200 µM), 19 injections; 25 mM Tris–HCl (pH 7.5), 150 mM NaCl, 25 °C; conditions: both partners purified
binder,measurement,setting,value
B1,Ka,MucB (pET22b-MucB-6His) [1],633000 M⁻¹
same,Kd,MucB (pET22b-MucB-6His) [2],1500 nM
